Drawing on paper PMC3777900, this text covers stoichiometry N and Alexa488-CaM molecules exchanged into one myosin molecule for 2 substances.

In the test the target is Mouse myosin 5a HMM (m5-HMM), heavy chain (mouse) (UniProt Q99104). The experiment in a line: photo-bleaching step counting by TIRF microscopy; single molecules bound on a cover glass surface after exchange with Alexa488-CaM at 5:1 (Alexa488-CaM: myosin); step-wise photo-bleaching counted.
Sequence of UniProt Q99104 (Q99104 whole entry): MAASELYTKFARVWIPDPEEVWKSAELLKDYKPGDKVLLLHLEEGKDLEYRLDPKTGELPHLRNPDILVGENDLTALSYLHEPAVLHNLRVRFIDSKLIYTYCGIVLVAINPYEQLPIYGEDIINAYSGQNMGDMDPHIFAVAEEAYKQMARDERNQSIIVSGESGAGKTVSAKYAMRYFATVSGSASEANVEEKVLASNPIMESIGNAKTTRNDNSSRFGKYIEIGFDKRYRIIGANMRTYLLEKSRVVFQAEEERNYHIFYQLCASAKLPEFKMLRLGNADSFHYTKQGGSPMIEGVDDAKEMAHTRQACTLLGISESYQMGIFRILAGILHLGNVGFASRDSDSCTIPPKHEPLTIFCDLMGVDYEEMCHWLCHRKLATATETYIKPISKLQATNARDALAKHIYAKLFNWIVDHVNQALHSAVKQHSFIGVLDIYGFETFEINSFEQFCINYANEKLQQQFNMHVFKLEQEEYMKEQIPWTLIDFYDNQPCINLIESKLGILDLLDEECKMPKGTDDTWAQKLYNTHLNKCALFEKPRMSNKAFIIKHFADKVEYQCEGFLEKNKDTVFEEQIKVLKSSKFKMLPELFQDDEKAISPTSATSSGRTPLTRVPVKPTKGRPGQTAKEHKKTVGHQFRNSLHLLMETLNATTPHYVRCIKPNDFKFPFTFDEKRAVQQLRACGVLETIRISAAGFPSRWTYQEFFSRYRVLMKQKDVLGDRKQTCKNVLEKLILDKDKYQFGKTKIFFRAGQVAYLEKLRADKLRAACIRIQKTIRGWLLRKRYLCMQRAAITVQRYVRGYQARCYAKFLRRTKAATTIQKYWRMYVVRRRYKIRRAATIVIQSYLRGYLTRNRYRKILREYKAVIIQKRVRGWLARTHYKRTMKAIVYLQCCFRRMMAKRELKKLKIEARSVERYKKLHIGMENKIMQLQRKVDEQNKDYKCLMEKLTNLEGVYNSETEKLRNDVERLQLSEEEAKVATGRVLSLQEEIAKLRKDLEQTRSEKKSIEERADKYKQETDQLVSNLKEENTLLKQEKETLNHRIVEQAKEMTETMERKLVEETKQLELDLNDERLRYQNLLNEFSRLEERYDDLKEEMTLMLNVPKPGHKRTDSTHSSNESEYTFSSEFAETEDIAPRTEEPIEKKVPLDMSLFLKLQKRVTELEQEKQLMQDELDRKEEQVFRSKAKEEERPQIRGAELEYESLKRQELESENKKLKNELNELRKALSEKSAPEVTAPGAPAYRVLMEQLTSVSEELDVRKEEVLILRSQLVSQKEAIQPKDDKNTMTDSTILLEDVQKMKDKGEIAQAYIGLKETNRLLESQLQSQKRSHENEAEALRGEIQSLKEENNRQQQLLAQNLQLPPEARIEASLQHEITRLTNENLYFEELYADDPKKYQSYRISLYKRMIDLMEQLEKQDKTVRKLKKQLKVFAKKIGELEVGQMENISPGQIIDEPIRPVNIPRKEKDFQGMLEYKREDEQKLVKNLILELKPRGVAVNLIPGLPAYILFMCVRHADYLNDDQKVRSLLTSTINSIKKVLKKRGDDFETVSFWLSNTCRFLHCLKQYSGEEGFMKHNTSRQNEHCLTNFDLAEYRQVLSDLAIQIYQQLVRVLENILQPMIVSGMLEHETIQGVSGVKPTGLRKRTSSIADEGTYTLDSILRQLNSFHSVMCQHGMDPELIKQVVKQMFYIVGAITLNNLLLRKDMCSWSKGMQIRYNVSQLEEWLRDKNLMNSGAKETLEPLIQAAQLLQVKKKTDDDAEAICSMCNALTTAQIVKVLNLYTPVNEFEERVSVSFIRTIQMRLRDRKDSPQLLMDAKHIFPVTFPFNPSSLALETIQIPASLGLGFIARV

As usually defined, the stoichiometry N is the number of molecules, sites or subunits per partner or assembly. Take “Mouse myosin 5a HMM (m5-HMM), heavy chain (from UniProt Q99104 1-1853) (domain or fragment)”: the stoichiometry N was 2.
Take “Alexa Fluor 488-labeled bovine calmodulin (from UniProt P62157 1-149) (natural protein)”: the Alexa488-CaM molecules exchanged into one myosin molecule is 2.
